Test results as given in the Human Domainome abundance scans (Beltran et al. 2025).
± gives the uncertainty stated by the source.

Assay: abundance fitness (aPCA) (normalised: wild type 0, dead -1); higher = more abundant; growth selection in yeast, the domain comes from the species named
Conditions: Homo sapiens

In order of falling abundance fitness:
1. Transcriptional activator Myb G175H, P10242  0.101 ± 0.17
2. Transcriptional activator Myb E201N, P10242  0.095 ± 0.14
3. Transcriptional activator Myb G175E, P10242  0.023 ± 0.079
4. Transcriptional activator Myb E194P, P10242  0.022 ± 0.21
5. Transcriptional activator Myb G175D, P10242  0.021 ± 0.079
6. Transcriptional activator Myb E196G, P10242  0.007 ± 0.057
7. Transcriptional activator Myb E194D, P10242  -0.001 ± 0.16
8. Transcriptional activator Myb E194T, P10242  -0.001 ± 0.12
9. Transcriptional activator Myb E196N, P10242  -0.022 ± 0.089
10. Transcriptional activator Myb E196L, P10242  -0.03 ± 0.072
11. Transcriptional activator Myb E196Q, P10242  -0.032 ± 0.12
12. Transcriptional activator Myb E201H, P10242  -0.034 ± 0.15
13. Transcriptional activator Myb G175K, P10242  -0.036 ± 0.095
14. Transcriptional activator Myb E194V, P10242  -0.037 ± 0.095
15. Transcriptional activator Myb E196T, P10242  -0.044 ± 0.1
16. Transcriptional activator Myb E196S, P10242  -0.052 ± 0.064
17. Transcriptional activator Myb E194A, P10242  -0.055 ± 0.086
18. Transcriptional activator Myb E196D, P10242  -0.056 ± 0.11
19. Transcriptional activator Myb E201Q, P10242  -0.061 ± 0.14
20. Transcriptional activator Myb E196K, P10242  -0.064 ± 0.1
21. Transcriptional activator Myb E194K, P10242  -0.067 ± 0.13
22. Transcriptional activator Myb E196A, P10242  -0.069 ± 0.079
23. Transcriptional activator Myb E201G, P10242  -0.076 ± 0.054
24. Transcriptional activator Myb E201M, P10242  -0.078 ± 0.24
25. Transcriptional activator Myb E196M, P10242  -0.084 ± 0.093
26. Transcriptional activator Myb G175A, P10242  -0.085 ± 0.058
27. Transcriptional activator Myb E196R, P10242  -0.092 ± 0.046
28. Transcriptional activator Myb E201A, P10242  -0.094 ± 0.076
29. Transcriptional activator Myb E194R, P10242  -0.102 ± 0.089
30. Transcriptional activator Myb G175L, P10242  -0.102 ± 0.077
31. Transcriptional activator Myb E201S, P10242  -0.105 ± 0.1
32. Transcriptional activator Myb E196P, P10242  -0.114 ± 0.1
33. Transcriptional activator Myb E201R, P10242  -0.12 ± 0.066
34. Transcriptional activator Myb E196V, P10242  -0.121 ± 0.092
35. Transcriptional activator Myb E194Q, P10242  -0.125 ± 0.13
36. Transcriptional activator Myb E196C, P10242  -0.13 ± 0.089
37. Transcriptional activator Myb G175S, P10242  -0.13 ± 0.074
38. Transcriptional activator Myb E168D, P10242  -0.133 ± 0.09
39. Transcriptional activator Myb E194G, P10242  -0.135 ± 0.068
40. Transcriptional activator Myb E196W, P10242  -0.151 ± 0.067
41. Transcriptional activator Myb E194W, P10242  -0.152 ± 0.13
42. Transcriptional activator Myb E201I, P10242  -0.156 ± 0.2
43. Transcriptional activator Myb E201L, P10242  -0.158 ± 0.097
44. Transcriptional activator Myb E194S, P10242  -0.161 ± 0.1
45. Transcriptional activator Myb E194F, P10242  -0.168 ± 0.27
46. Transcriptional activator Myb G175C, P10242  -0.171 ± 0.1
47. Transcriptional activator Myb E194Y, P10242  -0.174 ± 0.24
48. Transcriptional activator Myb E168Q, P10242  -0.182 ± 0.13
49. Transcriptional activator Myb E201V, P10242  -0.183 ± 0.078
50. Transcriptional activator Myb G163P, P10242  -0.19 ± 0.1
51. Transcriptional activator Myb E194L, P10242  -0.192 ± 0.088
52. Transcriptional activator Myb E196H, P10242  -0.196 ± 0.1
53. Transcriptional activator Myb G175N, P10242  -0.197 ± 0.18
54. Transcriptional activator Myb E201W, P10242  -0.204 ± 0.08
55. Transcriptional activator Myb E201P, P10242  -0.221 ± 0.13
56. Transcriptional activator Myb E194C, P10242  -0.226 ± 0.21
57. Transcriptional activator Myb E194M, P10242  -0.229 ± 0.26
58. Transcriptional activator Myb E196F, P10242  -0.247 ± 0.15
59. Transcriptional activator Myb G163E, P10242  -0.25 ± 0.088
60. Transcriptional activator Myb E201K, P10242  -0.272 ± 0.16
61. Transcriptional activator Myb E168K, P10242  -0.279 ± 0.11
62. Transcriptional activator Myb G175R, P10242  -0.281 ± 0.053
63. Transcriptional activator Myb G175M, P10242  -0.283 ± 0.098
64. Transcriptional activator Myb E168A, P10242  -0.287 ± 0.093
65. Transcriptional activator Myb E196Y, P10242  -0.306 ± 0.17
66. Transcriptional activator Myb G175F, P10242  -0.308 ± 0.12
67. Transcriptional activator Myb E201C, P10242  -0.314 ± 0.11
68. Transcriptional activator Myb G175Q, P10242  -0.315 ± 0.12
69. Transcriptional activator Myb E194N, P10242  -0.316 ± 0.36
70. Transcriptional activator Myb E168S, P10242  -0.325 ± 0.084
71. Transcriptional activator Myb G163A, P10242  -0.329 ± 0.069
72. Transcriptional activator Myb E196I, P10242  -0.34 ± 0.12
73. Transcriptional activator Myb G163D, P10242  -0.356 ± 0.086
74. Transcriptional activator Myb E201Y, P10242  -0.377 ± 0.14
75. Transcriptional activator Myb E194H, P10242  -0.403 ± 0.49
76. Transcriptional activator Myb G163K, P10242  -0.405 ± 0.11
77. Transcriptional activator Myb G163S, P10242  -0.406 ± 0.078
78. Transcriptional activator Myb G175V, P10242  -0.409 ± 0.066
79. Transcriptional activator Myb E168L, P10242  -0.419 ± 0.069
80. Transcriptional activator Myb G163R, P10242  -0.422 ± 0.059
81. Transcriptional activator Myb E168C, P10242  -0.464 ± 0.11
82. Transcriptional activator Myb E151V, P10242  -0.466 ± 0.074
83. Transcriptional activator Myb G163C, P10242  -0.468 ± 0.093
84. Transcriptional activator Myb G163M, P10242  -0.484 ± 0.12
85. Transcriptional activator Myb E168N, P10242  -0.492 ± 0.17
86. Transcriptional activator Myb E201F, P10242  -0.521 ± 0.35
87. Transcriptional activator Myb E168M, P10242  -0.533 ± 0.16
88. Transcriptional activator Myb G163V, P10242  -0.537 ± 0.084
89. Transcriptional activator Myb E168R, P10242  -0.541 ± 0.067
90. Transcriptional activator Myb E168H, P10242  -0.548 ± 0.36
91. Transcriptional activator Myb E168T, P10242  -0.573 ± 0.32
92. Transcriptional activator Myb E168F, P10242  -0.574 ± 0.12
93. Transcriptional activator Myb G163Y, P10242  -0.577 ± 0.46
94. Transcriptional activator Myb G163L, P10242  -0.581 ± 0.082
95. Transcriptional activator Myb G175P, P10242  -0.594 ± 0.11
96. Transcriptional activator Myb G163T, P10242  -0.595 ± 0.11
97. Transcriptional activator Myb G163W, P10242  -0.602 ± 0.084
98. Transcriptional activator Myb E168V, P10242  -0.61 ± 0.077
99. Transcriptional activator Myb E168Y, P10242  -0.657 ± 0.14
100. Transcriptional activator Myb E168G, P10242  -0.668 ± 0.07
101. Transcriptional activator Myb E151S, P10242  -0.73 ± 0.088
102. Transcriptional activator Myb E151T, P10242  -0.731 ± 0.12
103. Transcriptional activator Myb E168W, P10242  -0.79 ± 0.1
104. Transcriptional activator Myb E168P, P10242  -0.833 ± 0.13
105. Transcriptional activator Myb E151W, P10242  -0.835 ± 0.078
106. Transcriptional activator Myb G163F, P10242  -0.89 ± 0.16
107. Transcriptional activator Myb G175I, P10242  -0.961 ± 0.35
108. Transcriptional activator Myb E151Y, P10242  -1.12 ± 0.36
